Molecular target: the molecule itself
Assay: cryo-EM imaging of cells; unlabelled purified S-layer proteins added to Vps4 E209Q ΔslaA cells at 75°C for 1 h; cells plunge frozen and imaged (Glacios 200 kV); S-layer lattice seen on the cell surface

B1: exogenous unlabelled S-layer protein SlaA, purified from wild-type S. acidocaldarius DSM639 (natural protein, UniProt Q4J6E5 25-1424, looked up)
chain: ITTTALTPPVSAGGIQAYLLTGSGAPASGLVLFVVNVSNIQVSSSNVTNVISTVVSNIQINAKTENAQTGATTGSVTVRFPTSGYNAYYDSVDKVVFVVVSFLYPYTTTSVNIPLSYLSKYLPGLLTAQPYDETGAQVTSVSSTPFGSLIDTSTGQQILGTNPVLTSYNSYTTQANTNMQEGVVSGTLTSFTLGGQSFSGSTVPVILYAPFIFSNSPYQAGLYNPMQVNGNLGSLSSEAYYHPVIWGRALINTTLIDTYASGSVPFTFQLNYSVPGPLTINMAQLAWIASINNLPTSFTYLSYKFSNGYESFLGIISNSTQLTAGALTINPSGNFTINGKKFYVYLLVVGSTNSTTPVEYVTKLVVEYPSSTNFLPQGVTVTTSSNKYTLPVYEIGGPAGTTITLTGNWYSTPYTVQITVGSTPTLTNYVSQILLKAVAYEGINVSTTQSPYYSTAILSTPPSEISITGSSTITAQGKLTATSASATVNLLTNATLTYENIPLTQYSFNGIIVTPGYAAINGTTAMAYVIGALYNKTSDYVLSFAGSQEPMQVMNNNLTEVTTLAPFGLTLLAPSVPATETGTSPLQLEFFTVPSTSYIALVDFGLWGNLTSVTVSAYDTVNNKLSVNLGYFYGIVIPPSISTAPYNYQNFICPNNYVTVTIYDPDAVLDPYPSGSFTTSSLPLKYGNMNITGAVIFPGSSVYNPSGVFGYSNFNKGAAVTTFTYTAQSGPFSPVALTGNTNYLSQYADNNPTDNYYFIQTVNGMPVLMGGLSIVASPVSASLPSSTSSPGFMYLLPSAAQVPSPLPGMATPNYNLNIYITYKIDGATVGNNMINGLYVASQNTLIYVVPNGSFVGSNIKLTYTTTDYAVLHYFYSTGQYKVFKTVSVPNVTANLYFPSSTTPLYQLSVPLYLSEPYYGSPLPTYIGLGTNGTSLWNSPNYVLFGVSAVQQYLGFIKSISVTLSNGTTVVIPLTTSNMQTLFPQLVGQELQACNGTFQFGISITGLEKLLNLNVQQLNNSILSVTYHDYVTGETLTATTKLVALSTLSLVAKGAGVVEFLLTAYPYTGNITFAPPWFIAENVVKQPFMTYSDLQFAKTNPSAILSLSTVNITVVGLGGKASVYYNSTSGQTVITNIYGQTVATLSGNVLPTLTELAAGNGTFTGSLQFTIVPNNTVVQIPSSLTKTSFAVYTNGSLAIVLNGKAYSLGPAGLFLLPFVTYTGSAIGANATAIITVSDGVGTSTTQVPITAENFTPIRLAPFQVPAQVPLPNAPKLKYEYNGSIVITPQQQVLKIYVTSILPYPQEFQIQAFVYEASQFNVHTGSPTAAPVYFSYSAVRAYPALGIGTSVPNLLVYVQLQGISNLPAGKYVIVLSAVPFAGGPVLSEYPAQLIFTNVTLTQ
modifications: highly glycosylated
notes: S-layer protein SlaA, Sulfolobus acidocaldarius DSM639, gene saci2355; endogenous protein extracted from the cell surface; The purified preparation also holds SlaB (mass spectrometry, Coomassie gel); also called unlabelled exogeneous S-layer proteins; purified S-layer proteins
- binding result: binds

From doi:10.1101/2025.02.04.636414, “The mechanics of a continuous self-assembling surface-layer aids cell division in an archaeon” (bioRxiv, 2025)
